Assays:
[1] = target: T1, PPR2.0 t3 (synthetic); assay: EMSA; 20 mM Tris-HCl pH 8.0, 150 mM NaCl, 0.5% NP-40, 1 mM DTT, 1 mM EDTA; 20 nM RNA; details: tags: N-terminal SBP, C-terminal His6, kept; label: biotin
T1 chain: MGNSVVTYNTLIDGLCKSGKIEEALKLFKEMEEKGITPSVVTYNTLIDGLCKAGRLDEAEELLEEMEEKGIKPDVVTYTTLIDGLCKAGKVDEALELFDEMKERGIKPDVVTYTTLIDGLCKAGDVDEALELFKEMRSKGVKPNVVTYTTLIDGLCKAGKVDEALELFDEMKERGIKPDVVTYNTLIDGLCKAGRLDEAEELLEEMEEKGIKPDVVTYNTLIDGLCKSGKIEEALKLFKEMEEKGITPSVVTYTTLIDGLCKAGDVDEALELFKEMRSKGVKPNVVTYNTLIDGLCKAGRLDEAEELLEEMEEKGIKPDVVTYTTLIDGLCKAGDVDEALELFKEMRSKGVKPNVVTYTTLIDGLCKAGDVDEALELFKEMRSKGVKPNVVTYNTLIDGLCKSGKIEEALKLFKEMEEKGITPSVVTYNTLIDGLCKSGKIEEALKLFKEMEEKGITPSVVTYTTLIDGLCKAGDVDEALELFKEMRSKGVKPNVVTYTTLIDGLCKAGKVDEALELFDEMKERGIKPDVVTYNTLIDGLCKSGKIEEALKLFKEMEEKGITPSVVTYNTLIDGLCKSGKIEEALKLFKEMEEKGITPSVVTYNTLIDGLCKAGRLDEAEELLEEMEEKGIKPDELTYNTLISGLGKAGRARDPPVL

[2] = target: T1, PPR2.0 t3; assay: 20 mM Tris-HCl pH 8.0, 150 mM NaCl, 0.5% NP-40, 1 mM DTT; details: tags: N-terminal NanoLuc, C-terminal His6, kept; label: biotin
[3] = target: MS2 protein (UniProt P03612 2-130); assay: RBP-ELISA; purified and lysate, dose-dependent; EMSA: 20 mM Tris-HCl pH 8.0, 150 mM NaCl, 0.5% NP-40, 1 mM DTT, 1 mM EDTA, 0.2 pmol biotin-RNA in 10 uL, 6% PAGE in 0.5x TBE; temperature not stated; RBP-ELISA; details: protein: recombinant; tags: 6xHis; Nano-luc; chain copies: 2; label: 5'-biotin; hairpin
Chain of MS2 protein (P03612 2-130): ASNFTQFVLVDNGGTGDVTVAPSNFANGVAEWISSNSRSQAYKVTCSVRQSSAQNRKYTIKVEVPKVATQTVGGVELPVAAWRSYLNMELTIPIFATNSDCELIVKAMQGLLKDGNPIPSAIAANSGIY

[4] = target: T2, PPR2.0 t19 (synthetic); assay: EMSA; 20 mM Tris-HCl pH 8.0, 150 mM NaCl, 0.5% NP-40, 1 mM DTT, 1 mM EDTA; 20 nM RNA; details: tags: N-terminal SBP, C-terminal His6, kept; label: biotin
T2 chain: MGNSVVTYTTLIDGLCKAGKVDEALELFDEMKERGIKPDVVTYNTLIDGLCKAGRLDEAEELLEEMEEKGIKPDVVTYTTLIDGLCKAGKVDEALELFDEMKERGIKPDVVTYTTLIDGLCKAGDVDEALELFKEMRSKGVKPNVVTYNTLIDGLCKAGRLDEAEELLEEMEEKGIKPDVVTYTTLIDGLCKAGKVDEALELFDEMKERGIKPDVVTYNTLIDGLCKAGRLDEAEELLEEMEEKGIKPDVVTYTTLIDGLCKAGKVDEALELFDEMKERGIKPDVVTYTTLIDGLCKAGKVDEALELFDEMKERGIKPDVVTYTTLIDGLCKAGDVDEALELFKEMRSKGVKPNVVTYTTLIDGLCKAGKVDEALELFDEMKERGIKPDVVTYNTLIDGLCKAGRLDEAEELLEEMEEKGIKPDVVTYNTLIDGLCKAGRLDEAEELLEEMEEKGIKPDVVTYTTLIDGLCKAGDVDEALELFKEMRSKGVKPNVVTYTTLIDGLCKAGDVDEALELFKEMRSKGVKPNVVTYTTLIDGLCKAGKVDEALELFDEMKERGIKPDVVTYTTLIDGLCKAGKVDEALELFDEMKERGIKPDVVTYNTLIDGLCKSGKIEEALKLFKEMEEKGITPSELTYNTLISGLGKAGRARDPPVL

[5] = target: T2, PPR2.0 t19; assay: 20 mM Tris-HCl pH 8.0, 150 mM NaCl, 0.5% NP-40, 1 mM DTT; details: tags: N-terminal NanoLuc, C-terminal His6, kept; label: biotin
[6] = target: T3, PPR2.0 t23 (synthetic); assay: EMSA; 20 mM Tris-HCl pH 8.0, 150 mM NaCl, 0.5% NP-40, 1 mM DTT, 1 mM EDTA; 20 nM RNA; details: tags: N-terminal SBP, C-terminal His6, kept; label: biotin
T3 chain: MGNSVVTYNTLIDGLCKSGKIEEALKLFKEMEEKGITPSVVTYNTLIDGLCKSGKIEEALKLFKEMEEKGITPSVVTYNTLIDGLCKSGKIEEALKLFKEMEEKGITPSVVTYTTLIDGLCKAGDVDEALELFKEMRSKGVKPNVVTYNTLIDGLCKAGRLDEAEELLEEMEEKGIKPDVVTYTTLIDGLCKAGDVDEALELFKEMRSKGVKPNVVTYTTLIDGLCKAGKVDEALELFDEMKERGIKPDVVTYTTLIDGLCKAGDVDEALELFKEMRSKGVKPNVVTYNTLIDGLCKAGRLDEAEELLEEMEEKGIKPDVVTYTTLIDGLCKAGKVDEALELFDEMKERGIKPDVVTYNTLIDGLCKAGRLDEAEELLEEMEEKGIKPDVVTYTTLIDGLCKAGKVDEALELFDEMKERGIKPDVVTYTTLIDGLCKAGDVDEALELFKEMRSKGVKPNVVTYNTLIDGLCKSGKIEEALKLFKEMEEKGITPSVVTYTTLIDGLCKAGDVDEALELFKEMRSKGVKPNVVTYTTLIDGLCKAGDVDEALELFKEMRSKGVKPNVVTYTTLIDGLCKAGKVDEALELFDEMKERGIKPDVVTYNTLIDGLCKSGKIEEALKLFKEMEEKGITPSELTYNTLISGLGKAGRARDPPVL

[7] = target: T3, PPR2.0 t23; assay: 20 mM Tris-HCl pH 8.0, 150 mM NaCl, 0.5% NP-40, 1 mM DTT; details: tags: N-terminal NanoLuc, C-terminal His6, kept; label: biotin
[8] = target: T4, PPR2.0 t2 (synthetic); assay: EMSA; 20 mM Tris-HCl pH 8.0, 150 mM NaCl, 0.5% NP-40, 1 mM DTT, 1 mM EDTA; 20 nM RNA; details: tags: N-terminal SBP, C-terminal His6, kept; label: biotin
T4 chain: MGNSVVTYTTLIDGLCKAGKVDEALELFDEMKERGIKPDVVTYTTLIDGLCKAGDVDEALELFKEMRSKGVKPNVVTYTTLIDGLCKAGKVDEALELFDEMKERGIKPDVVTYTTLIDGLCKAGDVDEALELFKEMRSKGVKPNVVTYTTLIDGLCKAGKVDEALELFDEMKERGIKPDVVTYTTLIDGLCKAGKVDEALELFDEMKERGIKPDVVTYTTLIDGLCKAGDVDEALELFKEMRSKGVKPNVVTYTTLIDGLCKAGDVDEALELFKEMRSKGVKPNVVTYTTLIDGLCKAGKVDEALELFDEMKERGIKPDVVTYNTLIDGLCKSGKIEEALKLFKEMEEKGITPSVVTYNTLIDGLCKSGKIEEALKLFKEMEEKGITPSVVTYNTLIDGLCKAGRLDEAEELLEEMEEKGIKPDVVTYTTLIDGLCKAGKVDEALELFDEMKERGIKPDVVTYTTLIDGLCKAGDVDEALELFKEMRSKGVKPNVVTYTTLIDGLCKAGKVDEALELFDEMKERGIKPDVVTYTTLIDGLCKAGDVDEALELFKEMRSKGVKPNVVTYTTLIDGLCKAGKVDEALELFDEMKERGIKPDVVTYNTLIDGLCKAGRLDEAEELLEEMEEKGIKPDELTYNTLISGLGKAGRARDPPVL

[9] = target: T4, PPR2.0 t2; assay: 20 mM Tris-HCl pH 8.0, 150 mM NaCl, 0.5% NP-40, 1 mM DTT; details: tags: N-terminal NanoLuc, C-terminal His6, kept; label: biotin
[10] = target: T5, PPR2.0 t1 (synthetic); assay: EMSA; 20 mM Tris-HCl pH 8.0, 150 mM NaCl, 0.5% NP-40, 1 mM DTT, 1 mM EDTA; 20 nM RNA; details: tags: N-terminal SBP, C-terminal His6, kept; label: biotin
T5 chain: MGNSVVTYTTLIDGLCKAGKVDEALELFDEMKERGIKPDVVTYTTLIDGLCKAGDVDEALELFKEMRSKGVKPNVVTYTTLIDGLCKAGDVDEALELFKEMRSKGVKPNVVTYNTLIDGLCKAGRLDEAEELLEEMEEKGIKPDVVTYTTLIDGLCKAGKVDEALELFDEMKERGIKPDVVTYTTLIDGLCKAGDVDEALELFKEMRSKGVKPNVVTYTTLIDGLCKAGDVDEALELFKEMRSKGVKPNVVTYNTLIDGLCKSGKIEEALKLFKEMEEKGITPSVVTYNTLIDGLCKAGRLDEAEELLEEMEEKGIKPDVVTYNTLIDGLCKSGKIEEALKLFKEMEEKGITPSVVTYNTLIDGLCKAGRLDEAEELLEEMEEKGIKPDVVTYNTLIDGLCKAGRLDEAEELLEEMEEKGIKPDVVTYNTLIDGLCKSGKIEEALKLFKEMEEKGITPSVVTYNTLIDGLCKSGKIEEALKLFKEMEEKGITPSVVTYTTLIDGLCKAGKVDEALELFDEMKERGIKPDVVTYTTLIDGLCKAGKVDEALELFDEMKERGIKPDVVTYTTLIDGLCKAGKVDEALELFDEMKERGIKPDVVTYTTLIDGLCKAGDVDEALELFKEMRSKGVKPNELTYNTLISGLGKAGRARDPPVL

[11] = target: T5, PPR2.0 t1; assay: 20 mM Tris-HCl pH 8.0, 150 mM NaCl, 0.5% NP-40, 1 mM DTT; details: tags: N-terminal NanoLuc, C-terminal His6, kept; label: biotin
[12] = target: T6, PPR2.0 t24 (synthetic); assay: EMSA; 20 mM Tris-HCl pH 8.0, 150 mM NaCl, 0.5% NP-40, 1 mM DTT, 1 mM EDTA; 20 nM RNA; details: tags: N-terminal SBP, C-terminal His6, kept; label: biotin
T6 chain: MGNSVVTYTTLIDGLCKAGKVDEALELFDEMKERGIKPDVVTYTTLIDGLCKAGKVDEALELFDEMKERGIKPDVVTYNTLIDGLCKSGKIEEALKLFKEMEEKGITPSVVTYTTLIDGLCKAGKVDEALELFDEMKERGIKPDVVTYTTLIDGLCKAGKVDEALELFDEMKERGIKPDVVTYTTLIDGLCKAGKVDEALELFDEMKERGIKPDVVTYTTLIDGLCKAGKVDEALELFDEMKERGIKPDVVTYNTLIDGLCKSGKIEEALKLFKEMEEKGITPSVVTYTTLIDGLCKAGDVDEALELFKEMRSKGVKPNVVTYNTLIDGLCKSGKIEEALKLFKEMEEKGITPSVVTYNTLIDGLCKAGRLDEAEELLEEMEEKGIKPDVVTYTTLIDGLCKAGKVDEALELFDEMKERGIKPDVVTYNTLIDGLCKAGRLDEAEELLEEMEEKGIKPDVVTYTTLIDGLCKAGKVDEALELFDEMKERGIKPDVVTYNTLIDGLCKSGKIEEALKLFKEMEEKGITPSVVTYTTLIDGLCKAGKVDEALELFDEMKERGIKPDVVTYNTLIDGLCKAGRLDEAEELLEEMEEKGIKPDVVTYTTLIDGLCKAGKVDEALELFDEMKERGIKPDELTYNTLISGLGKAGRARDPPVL

GACAUGCCUGAGUCAUAACCAGCCUGACUG (ssRNA) [Probe_t3]
Kd [1]: 59.2 nM | binding signal [2]: 3.35e+07 RBP-ELISA luminescence, CPS

AGAAAACAUGAGGAUCACCCAUGUCUGCAG (structured_RNA) [Probe_MS2]
binding result [3]: binds

GACAUGCGUGAUGUGGAGUUAAGGCGACUG (ssRNA) [Probe_t19]
Kd [4]: 173 nM | binding signal [5]: 1.19e+07 RBP-ELISA luminescence, CPS

GACAUGCCCCAUAGAUGUGACAAGCGACUG (ssRNA) [Probe_t23]
Kd [6]: 10.4 nM | binding signal [7]: 3.27e+07 RBP-ELISA luminescence, CPS

GACAUGCGAGAGGAAGCCUGAGAGUGACUG (ssRNA) [Probe_t2]
Kd [8]: 4 nM | binding signal [9]: 5.68e+07 RBP-ELISA luminescence, CPS

GACAUGCGAAUGAACUCUUCCGGGAGACUG (ssRNA) [Probe_t1]
Kd [10]: 3.45 nM | binding signal [11]: 6.64e+07 RBP-ELISA luminescence, CPS

GACAUGCGGCGGGGCACUGUGCGUGGACUG (ssRNA) [Probe_t24]
Kd [12]: 11 nM
